Results on two proteins are retold here after patent US20050120396.

This data set addresses GST-MKK4 fusion protein [GST: P08515].

GST-MKK4 fusion protein [GST: P08515], sequence (P08515 whole entry, looked up, the tested form may be a part): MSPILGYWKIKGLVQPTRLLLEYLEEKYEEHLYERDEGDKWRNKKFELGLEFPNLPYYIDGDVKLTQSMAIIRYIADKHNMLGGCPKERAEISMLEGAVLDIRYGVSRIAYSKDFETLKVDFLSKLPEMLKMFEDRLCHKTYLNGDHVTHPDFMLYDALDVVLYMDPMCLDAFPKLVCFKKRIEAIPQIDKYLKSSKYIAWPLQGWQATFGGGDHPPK

B1: purified mouse MEKK1 (protein)
chain: MVTAVPAVFSKLVTMLNASGSTHFTRMRRRLMAIADEVEIAEVIQLGVEDTVDGHQDSLQAVAPTSCLENSSLEHTVHREKTGKGLSATRLSASSEDISDRLAGVSVGLPSSTTTEQPKPAVQTKGRPHSQCLNSSPLSHAQLMFPAPSAPCSSAPSVPDISKHRPQAFVPCKIPSASPQTQRKFSLQFQRNCSEHRDSDQLSPVFTQSRPPPSSNIHRPKPSRPVPGSTSKLGDATKSSMTLDLGSASRCDDSFGGGGNSGNAVIPSDETVFTPVEDKCRLDVNTELNSSIEDLLEASMPSSDTTVTFKSEVAVLSPEKAENDDTYKDDVNHNQKCKEKMEAEEEEALAIAMAMSASQDALPIVPQLQVENGEDIIIIQQDTPETLPGHTKAKQPYREDAEWLKGQQIGLGAFSSCYQAQDVGTGTLMAVKQVTYVRNTSSEQEEVVEALREEIRMMGHLNHPNIIRMLGATCEKSNYNLFIEWMAGGSVAHLLSKYGAFKESVVINYTEQLLRGLSYLHENQIIHRDVKGANLLIDSTGQRLRIADFGAAARLASKGTGAGEFQGQLLGTIAFMAPEVLRGQQYGRSCDVWSVGCAIIEMACAKPPWNAEKHSNHLALIFKIASATTAPSIPSHLSPGLRDVAVRCLELQPQDRPPSRELLKHPVFRTTW
Regarding B1, the “phosphorylation of GST-MKK4 (32P incorporation in kinase reaction, SDS-PAGE and imaging)” value is listed as “The ability of extracts containing his-tagged hMEKK1 to phosphorylate GST-MKK4 was comparable to the activity of purified mouse MEKK1”.

B2: His-tagged hMEKK1 (polyhistidine-hMEKK1 fusion) (protein)
chain: HHHHHHMENKETLKGLHKMDDRPEERMIREKLKATCMPAWKHEWLERRNRRGPVVVKPIPVKGDGSEMNHLAAESPGEVQASAASPASKGRRSPSPGNSPSGRTVKSESPGVRRKRVSPVPFQSGRITPPRRAPSPDGFSPYSPEETNRRVNKVMRARLYLLQQIGPNSFLIGGDSPDNKYRVFIGPQNCSCARGTFCIHLLFVMLRVFQLEPSDPMLWRKTLKNFEVESLFQKYHSRRSSRIKAPSRNTIQKFVSRMSNSHTLSSSSTSTSSSENSIKDEEEQMCPICLLGMLDEESLTVCEDGCRNKLHHHCMSIWAEECRRNREPLICPLCRSKWRSHDFYSHELSSPVDSPSSLRAAQQQTVQQQPLAGSRRNQESNFNLTHYGTQQIPPAYKDLAEPWIQVFGMELVGCLFSRNWNVREMALRRLSHDVSGALLLANGESTGNSGGSSGSSPSGGATSGSSQTSISGDVVEACCSVLSMVCADPVYKVYVAALKTLRAMLVYTPCHSLAERIKLQRLLQPVVDTILVKCADANSRTSQLSISTLLELCKGQAGELAVGREILKAGSIGIGGVDYVLNCILGNQTESNNWQELLGRLCLIDRLLLEFPAEFYPHIVSTDVSQAEPVEIRYKKLLSLLTFALQSIDNSHSMVGKLSRRIYLSSARMVTTVPHVFSKLLEMLSVSSSTHFTRMRRRLMAIADEVEIAEAIQLGVEDTLDGQQDSFLQASVPNNYLETTENSSPECTIHLEKTGKGLCATKLSASSEDISERLASISVGPSSSTTTTTTTTEQPKPMVQTKGRPHSQCLNSSPLSHHSQLMFPALSTPSSSTPSVPAGTATDVSKHRLQGFIPCRIPSASPQTQRKFSLQFHRNCPENKDSDKLSPVFTQSRPLPSSNIHRPKPSRPTPGNTSKQGDPSKNSMTLDLNSSSKCDDSFGCSSNSSNAVIPSDETVFTPVEEKCRLDVNTELNSSIEDLLEASMPSSDTTVTFKSEVAVLSPEKAENDDTYKDDVNHNQKCKEKMEAEEEEALAIAMAMSASQDALPIVPQLQVENGEDIIIIQQDTPETLPGHTKAKQPYREDTEWLKGQQIGLGAFSSCYQAQDVGTGTLMAVKQVTYVRNTSSEQEEVVEALREEIRMMSHLNHPNIIRMLGATCEKSNYNLFIEWMAGGSVAHLLSKYGAFKESVVINYTEQLLRGLSYLHENQIIHRDVKGANLLIDSTGQRLRIADFGAAARLASKGTGAGEFQGQLLGTIAFMAPEVLRGQQYGRSCDVWSVGCAIIEMACAKPPWNAEKHSNHLALIFKIASATTAPSIPSHLSPGLRDVALRCLELQPQDRPPSRELLKHPVFRTTW
In the case of B2, the “phosphorylation of GST-MKK4 (32P incorporation in kinase reaction, SDS-PAGE and imaging)” value is “The ability of extracts containing his-tagged hMEKK1 to phosphorylate GST-MKK4 was comparable to the activity of purified mouse MEKK1, and significantly above the background levels seen with control extracts”.
